Results as given in patent US20260109745A1.

Experiments:
[1] = molecular target: MUC5AC (NPC-1 antigen, tumor variant) as expressed by human colorectal tumor cell lines (human) (UniProt P98088); test: flow cytometry on SW480 colorectal tumor cells
[2] = molecular target: MUC5AC (NPC-1 antigen, tumor variant) as expressed by human colorectal tumor cell lines (human) (UniProt P98088); test: flow cytometry on LS174T colorectal tumor cells
[3] = molecular target: MUC5AC (NPC-1 antigen, tumor variant) as expressed on human pancreatic tumor cell lines (human) (UniProt P98088); test: flow cytometry on CFPAC-1 pancreatic tumor cells
[4] = molecular target: MUC5AC (NPC-1 antigen, tumor variant) as expressed by human colorectal tumor cell lines (human) (UniProt P98088); test: flow cytometry on Colo-205 colorectal tumor cells
[5] = molecular target: MUC5AC (NPC-1 antigen, tumor variant) as expressed on human pancreatic tumor cell lines (human) (UniProt P98088); test: immunofluorescence on fixed, permeabilized CFPAC-1 cells, 2 ug/ml

Sequence of MUC5AC (NPC-1 antigen, tumor variant) as expressed by human colorectal tumor cell lines (human) (P98088 other isoform, or with tags, fused parts or gaps mutant limits assumed): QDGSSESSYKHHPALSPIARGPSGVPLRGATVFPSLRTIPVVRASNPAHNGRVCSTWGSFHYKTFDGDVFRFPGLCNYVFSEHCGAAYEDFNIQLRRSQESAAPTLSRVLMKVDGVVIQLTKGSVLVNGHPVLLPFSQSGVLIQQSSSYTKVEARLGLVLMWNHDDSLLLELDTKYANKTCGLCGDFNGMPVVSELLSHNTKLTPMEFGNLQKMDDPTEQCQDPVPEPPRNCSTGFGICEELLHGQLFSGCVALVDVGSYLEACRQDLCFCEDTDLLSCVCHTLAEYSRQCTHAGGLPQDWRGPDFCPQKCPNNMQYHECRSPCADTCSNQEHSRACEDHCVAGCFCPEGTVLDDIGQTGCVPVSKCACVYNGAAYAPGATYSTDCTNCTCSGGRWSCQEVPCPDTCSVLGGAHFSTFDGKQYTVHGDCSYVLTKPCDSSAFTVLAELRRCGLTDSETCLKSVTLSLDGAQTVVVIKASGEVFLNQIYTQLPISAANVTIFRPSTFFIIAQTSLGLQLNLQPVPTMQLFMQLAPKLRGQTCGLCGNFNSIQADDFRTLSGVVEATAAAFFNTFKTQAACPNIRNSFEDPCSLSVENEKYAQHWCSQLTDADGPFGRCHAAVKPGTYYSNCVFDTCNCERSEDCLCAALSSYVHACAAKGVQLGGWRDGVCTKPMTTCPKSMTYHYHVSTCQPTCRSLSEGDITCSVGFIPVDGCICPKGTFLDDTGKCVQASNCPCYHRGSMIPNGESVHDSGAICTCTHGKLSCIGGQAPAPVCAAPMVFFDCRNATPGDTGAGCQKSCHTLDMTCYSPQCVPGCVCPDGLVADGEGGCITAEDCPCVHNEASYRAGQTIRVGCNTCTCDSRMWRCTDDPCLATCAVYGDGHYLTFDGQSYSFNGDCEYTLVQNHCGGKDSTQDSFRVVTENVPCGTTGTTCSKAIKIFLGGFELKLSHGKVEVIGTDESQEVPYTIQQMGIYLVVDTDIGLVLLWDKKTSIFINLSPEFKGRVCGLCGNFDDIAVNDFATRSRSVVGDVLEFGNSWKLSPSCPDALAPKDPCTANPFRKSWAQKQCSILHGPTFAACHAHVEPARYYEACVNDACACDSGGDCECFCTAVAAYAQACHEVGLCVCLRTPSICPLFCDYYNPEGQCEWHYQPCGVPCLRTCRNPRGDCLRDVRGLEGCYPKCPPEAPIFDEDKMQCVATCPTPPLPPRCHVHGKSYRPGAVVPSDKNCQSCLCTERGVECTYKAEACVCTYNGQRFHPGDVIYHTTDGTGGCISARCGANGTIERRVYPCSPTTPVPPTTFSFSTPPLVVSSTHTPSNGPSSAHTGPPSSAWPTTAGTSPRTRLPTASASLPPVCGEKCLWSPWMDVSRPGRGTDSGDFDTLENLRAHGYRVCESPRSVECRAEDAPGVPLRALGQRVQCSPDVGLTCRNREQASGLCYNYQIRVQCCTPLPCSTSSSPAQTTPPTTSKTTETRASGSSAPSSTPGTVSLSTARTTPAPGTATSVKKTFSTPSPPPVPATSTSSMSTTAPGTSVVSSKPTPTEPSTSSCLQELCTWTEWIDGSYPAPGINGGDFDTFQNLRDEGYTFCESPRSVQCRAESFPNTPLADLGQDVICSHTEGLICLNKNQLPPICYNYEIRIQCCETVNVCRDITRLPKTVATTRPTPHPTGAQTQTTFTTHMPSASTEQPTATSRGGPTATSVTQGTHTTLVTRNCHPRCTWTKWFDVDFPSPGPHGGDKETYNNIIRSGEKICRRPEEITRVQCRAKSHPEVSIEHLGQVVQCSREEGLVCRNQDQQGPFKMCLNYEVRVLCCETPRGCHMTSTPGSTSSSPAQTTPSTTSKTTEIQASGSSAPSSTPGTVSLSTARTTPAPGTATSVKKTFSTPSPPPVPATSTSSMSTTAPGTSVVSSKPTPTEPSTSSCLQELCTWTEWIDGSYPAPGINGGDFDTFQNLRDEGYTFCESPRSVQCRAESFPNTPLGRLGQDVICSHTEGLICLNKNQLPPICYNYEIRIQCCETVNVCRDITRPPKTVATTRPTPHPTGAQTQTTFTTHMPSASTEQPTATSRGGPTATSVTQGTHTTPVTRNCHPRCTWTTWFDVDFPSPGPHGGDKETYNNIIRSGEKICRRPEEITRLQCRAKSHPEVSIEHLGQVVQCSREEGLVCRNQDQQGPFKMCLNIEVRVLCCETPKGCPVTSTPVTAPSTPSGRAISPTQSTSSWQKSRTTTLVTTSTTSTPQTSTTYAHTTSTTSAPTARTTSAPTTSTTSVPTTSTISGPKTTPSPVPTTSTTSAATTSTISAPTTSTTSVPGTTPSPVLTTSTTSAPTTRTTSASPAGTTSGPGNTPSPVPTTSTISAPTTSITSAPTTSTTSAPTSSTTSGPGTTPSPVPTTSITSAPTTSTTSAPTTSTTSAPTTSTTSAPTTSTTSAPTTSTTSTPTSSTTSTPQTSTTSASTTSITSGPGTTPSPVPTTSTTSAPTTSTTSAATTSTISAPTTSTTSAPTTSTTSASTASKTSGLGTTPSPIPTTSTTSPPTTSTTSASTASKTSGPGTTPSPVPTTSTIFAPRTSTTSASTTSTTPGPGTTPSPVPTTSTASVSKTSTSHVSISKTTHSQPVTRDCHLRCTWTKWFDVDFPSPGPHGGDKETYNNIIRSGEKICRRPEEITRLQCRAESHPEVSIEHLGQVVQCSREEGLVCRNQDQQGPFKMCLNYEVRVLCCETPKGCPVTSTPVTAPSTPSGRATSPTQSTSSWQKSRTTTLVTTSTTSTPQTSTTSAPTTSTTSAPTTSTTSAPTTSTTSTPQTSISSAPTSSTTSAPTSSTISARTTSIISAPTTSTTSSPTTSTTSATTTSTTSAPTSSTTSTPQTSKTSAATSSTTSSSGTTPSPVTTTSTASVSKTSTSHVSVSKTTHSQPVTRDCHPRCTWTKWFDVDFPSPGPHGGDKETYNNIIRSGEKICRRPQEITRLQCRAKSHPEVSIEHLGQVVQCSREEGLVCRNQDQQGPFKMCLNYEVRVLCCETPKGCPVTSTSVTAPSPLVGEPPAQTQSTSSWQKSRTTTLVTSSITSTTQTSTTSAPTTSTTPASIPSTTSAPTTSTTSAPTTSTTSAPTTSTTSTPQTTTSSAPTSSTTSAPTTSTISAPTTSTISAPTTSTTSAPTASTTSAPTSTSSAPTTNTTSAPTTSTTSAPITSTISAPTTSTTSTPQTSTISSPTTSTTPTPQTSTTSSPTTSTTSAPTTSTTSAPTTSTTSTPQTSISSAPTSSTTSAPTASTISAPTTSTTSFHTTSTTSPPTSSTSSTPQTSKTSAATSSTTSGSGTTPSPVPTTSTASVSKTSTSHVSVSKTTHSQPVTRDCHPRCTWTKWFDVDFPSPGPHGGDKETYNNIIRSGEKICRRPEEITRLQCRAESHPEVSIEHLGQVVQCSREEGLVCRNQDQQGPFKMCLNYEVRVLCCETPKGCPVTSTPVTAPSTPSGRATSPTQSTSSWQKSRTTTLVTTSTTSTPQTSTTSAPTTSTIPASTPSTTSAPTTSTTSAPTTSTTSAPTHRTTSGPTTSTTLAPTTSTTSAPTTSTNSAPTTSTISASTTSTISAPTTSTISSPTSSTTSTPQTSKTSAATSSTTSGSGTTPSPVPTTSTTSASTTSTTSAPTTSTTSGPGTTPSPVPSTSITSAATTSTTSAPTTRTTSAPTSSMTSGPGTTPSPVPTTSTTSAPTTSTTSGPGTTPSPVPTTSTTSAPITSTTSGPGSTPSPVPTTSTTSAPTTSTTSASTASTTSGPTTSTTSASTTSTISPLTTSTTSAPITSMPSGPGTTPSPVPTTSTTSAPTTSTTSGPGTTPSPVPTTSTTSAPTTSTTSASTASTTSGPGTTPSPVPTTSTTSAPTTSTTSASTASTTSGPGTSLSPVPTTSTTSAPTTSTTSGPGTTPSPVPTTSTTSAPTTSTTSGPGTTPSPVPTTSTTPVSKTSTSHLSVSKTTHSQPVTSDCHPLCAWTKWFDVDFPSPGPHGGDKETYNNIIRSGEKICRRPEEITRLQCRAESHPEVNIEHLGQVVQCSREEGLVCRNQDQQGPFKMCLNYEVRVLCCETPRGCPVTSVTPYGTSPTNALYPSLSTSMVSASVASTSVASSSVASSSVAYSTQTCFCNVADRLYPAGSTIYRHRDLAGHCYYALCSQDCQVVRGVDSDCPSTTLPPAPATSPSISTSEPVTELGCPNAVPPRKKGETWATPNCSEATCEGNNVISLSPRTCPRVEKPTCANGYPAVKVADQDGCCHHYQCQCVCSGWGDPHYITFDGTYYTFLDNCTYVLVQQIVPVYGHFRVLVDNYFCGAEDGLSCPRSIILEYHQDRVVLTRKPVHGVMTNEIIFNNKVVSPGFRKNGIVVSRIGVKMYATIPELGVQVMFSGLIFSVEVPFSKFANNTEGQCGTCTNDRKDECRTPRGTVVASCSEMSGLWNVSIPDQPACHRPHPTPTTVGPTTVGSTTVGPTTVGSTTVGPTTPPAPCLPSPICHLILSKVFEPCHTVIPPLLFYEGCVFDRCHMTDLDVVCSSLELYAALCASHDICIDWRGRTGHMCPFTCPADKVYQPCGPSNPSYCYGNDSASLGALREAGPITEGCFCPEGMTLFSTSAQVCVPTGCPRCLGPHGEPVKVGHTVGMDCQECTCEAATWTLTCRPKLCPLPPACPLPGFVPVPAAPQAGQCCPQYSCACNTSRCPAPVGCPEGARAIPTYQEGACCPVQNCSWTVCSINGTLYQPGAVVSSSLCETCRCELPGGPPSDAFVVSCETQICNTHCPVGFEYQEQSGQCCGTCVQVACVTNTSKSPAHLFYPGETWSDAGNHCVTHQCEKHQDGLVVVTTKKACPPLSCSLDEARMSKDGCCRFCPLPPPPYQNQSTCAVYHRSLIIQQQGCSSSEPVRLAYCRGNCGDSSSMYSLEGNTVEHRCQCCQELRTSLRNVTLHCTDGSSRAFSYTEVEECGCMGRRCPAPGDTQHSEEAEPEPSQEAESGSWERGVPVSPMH
Sequence of MUC5AC (NPC-1 antigen, tumor variant) as expressed on human pancreatic tumor cell lines (human) (P98088 other isoform, or with tags, fused parts or gaps mutant limits assumed): as above

Row | % Cells Stained [1] [%] | % Cells Stained [2] [%] | % Cells Stained [3] [%] | % Cells Stained [4] [%] | % of cells stained [5] [%] | Substance
1 | 3.38 | 3.85 | 1.79 | 2.33 |  | Isotype control antibody
2 |  |  |  |  | 100 | Polyclonal rabbit anti-MUC5AC antibody (H-160) (Santa Cruz Biotechnology Inc.)
